# Measured values reported in publication PMC10786891, “Massively parallel profiling of RNA-targeting CRISPR-Cas13d”.
# Positions count from the first letter of the chain named. In names and notes the source's numbering stands.
# T1: EsCas13d, nuclease-dead (Eubacterium siraeum, UniProt B0MS50, R295A;H300A;R849A;H854A)
# T1 sequence: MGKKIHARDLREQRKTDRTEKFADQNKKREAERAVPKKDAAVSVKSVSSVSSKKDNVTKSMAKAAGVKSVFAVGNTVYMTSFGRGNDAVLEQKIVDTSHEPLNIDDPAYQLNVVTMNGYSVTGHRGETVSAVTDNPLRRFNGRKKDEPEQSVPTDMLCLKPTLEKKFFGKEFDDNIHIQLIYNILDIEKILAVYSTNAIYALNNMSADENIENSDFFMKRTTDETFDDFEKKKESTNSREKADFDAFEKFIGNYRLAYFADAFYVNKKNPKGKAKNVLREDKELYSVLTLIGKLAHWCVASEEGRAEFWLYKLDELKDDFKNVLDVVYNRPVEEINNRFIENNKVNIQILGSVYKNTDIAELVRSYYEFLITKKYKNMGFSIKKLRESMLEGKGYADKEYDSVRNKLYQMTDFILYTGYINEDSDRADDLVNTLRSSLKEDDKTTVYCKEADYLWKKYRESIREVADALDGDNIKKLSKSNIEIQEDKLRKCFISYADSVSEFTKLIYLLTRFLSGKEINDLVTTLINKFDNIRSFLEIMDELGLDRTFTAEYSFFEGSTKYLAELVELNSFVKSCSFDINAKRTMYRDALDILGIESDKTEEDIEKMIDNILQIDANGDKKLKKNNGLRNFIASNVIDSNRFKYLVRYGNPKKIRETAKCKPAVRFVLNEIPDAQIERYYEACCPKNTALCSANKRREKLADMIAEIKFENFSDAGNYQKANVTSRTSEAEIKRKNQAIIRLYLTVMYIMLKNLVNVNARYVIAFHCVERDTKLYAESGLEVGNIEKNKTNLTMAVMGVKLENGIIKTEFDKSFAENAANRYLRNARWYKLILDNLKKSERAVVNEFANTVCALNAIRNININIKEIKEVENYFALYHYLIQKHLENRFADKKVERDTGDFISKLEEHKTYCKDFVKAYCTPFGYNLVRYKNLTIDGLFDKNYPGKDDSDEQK
# B1: target 1 G15A,C22A (mixed)
# RNA 1: CACCCGUGCAAAAAUGCAGGGGUCUAAAACUGAGCGGAUAACCUCUCUAUGG
# RNA 2: GGGAAUGGAUCCACAUCUACGAAUUCGUAACAUAGAAAGGUUAUCCGCUCACCGAGAUCGGAAGAGCACACGU
# B2: target 1 insA 3' of 21,insC 3' of 8 (mixed)
# RNA 1: B1 RNA 1
# RNA 2: GGGAAUGGAUCCACAUCUACGAAUUCGUACCAAUAGAGAGGUUAUCCCGCUCACCGAGAUCGGAAGAGCACACGU
# B3: target 1 insC 3' of 9,insA 3' of 3 (mixed)
# RNA 1: B1 RNA 1
# RNA 2: GGGAAUGGAUCCACAUCUACGAAUUCGUACCAUAGAGAGGUUACUCCGCUACACCGAGAUCGGAAGAGCACACGU
# B4: target 2 MT 5'PFS UCA 3'PFS UUA (mixed)
# RNA 1: CACCCGUGCAAAAUUGCAGGGGUCUAAAACCUUCUCCAAAUUGUUUCAUCCU
# RNA 2: GGGAAUGGAUCCACAUCUACGAAUUCUCAAGGAUGAAACAAUUUGGAGAAGUUAAGAUCGGAAGAGCACACGU
# B5: target 2 MT 5'PFS GAA 3'PFS UCC (mixed)
# RNA 1: B4 RNA 1
# RNA 2: B4 RNA 2 with U27G, C28A, U53C, A54C
# B6: target 2 MT 5'PFS GUA 3'PFS CGG (mixed)
# RNA 1: B4 RNA 1
# RNA 2: B4 RNA 2 with U27G, C28U, U52C, U53G, A54G
# B7: target 2 MT 5'PFS UGC 3'PFS AUC (mixed)
# RNA 1: B4 RNA 1
# RNA 2: B4 RNA 2 with C28G, A29C, U52A, A54C
# B8: target 2 MT 5'PFS CAG 3'PFS UAC (mixed)
# RNA 1: B4 RNA 1
# RNA 2: B4 RNA 2 with U27C, C28A, A29G, U53A, A54C
# B9: target 2 MT 5'PFS GUG 3'PFS UUA (mixed)
# RNA 1: B4 RNA 1
# RNA 2: B4 RNA 2 with U27G, C28U, A29G
# B10: target 2 MT 5'PFS GUG 3'PFS UUC (mixed)
# RNA 1: B4 RNA 1
# RNA 2: B4 RNA 2 with U27G, C28U, A29G, A54C
# B11: target 2 MT 5'PFS GGU 3'PFS CUU (mixed)
# RNA 1: B4 RNA 1
# RNA 2: B4 RNA 2 with U27G, C28G, A29U, U52C, A54U
# B12: target 2 MT 5'PFS GAA 3'PFS UCG (mixed)
# RNA 1: B4 RNA 1
# RNA 2: B4 RNA 2 with U27G, C28A, U53C, A54G
# B13: target 2 MT 5'PFS UUG 3'PFS UGU (mixed)
# RNA 1: B4 RNA 1
# RNA 2: B4 RNA 2 with C28U, A29G, U53G, A54U
# B14: target 2 MT 5'PFS GGC 3'PFS UCC (mixed)
# RNA 1: B4 RNA 1
# RNA 2: B4 RNA 2 with U27G, C28G, A29C, U53C, A54C
# B15: target 2 MT 5'PFS GAA 3'PFS UCU (mixed)
# RNA 1: B4 RNA 1
# RNA 2: B4 RNA 2 with U27G, C28A, U53C, A54U
# B16: target 2 MT 5'PFS UAG 3'PFS ACG (mixed)
# RNA 1: B4 RNA 1
# RNA 2: B4 RNA 2 with C28A, A29G, U52A, U53C, A54G
# B17: target 2 MT 5'PFS UGC 3'PFS AUG (mixed)
# RNA 1: B4 RNA 1
# RNA 2: B4 RNA 2 with C28G, A29C, U52A, A54G
# B18: target 2 MT 5'PFS GAG 3'PFS UUC (mixed)
# RNA 1: B4 RNA 1
# RNA 2: B4 RNA 2 with U27G, C28A, A29G, A54C
# B19: target 2 MT 5'PFS AUG 3'PFS AUG (mixed)
# RNA 1: B4 RNA 1
# RNA 2: B4 RNA 2 with U27A, C28U, A29G, U52A, A54G
# B20: target 2 MT 5'PFS UCA 3'PFS UUC (mixed)
# RNA 1: B4 RNA 1
# RNA 2: B4 RNA 2 with A54C
# B21: target 2 MT 5'PFS GGC 3'PFS UCG (mixed)
# RNA 1: B4 RNA 1
# RNA 2: B4 RNA 2 with U27G, C28G, A29C, U53C, A54G
# B22: target 2 MT 5'PFS UAG 3'PFS ACU (mixed)
# RNA 1: B4 RNA 1
# RNA 2: B4 RNA 2 with C28A, A29G, U52A, U53C, A54U
# B23: target 2 MT 5'PFS UAG 3'PFS ACA (mixed)
# RNA 1: B4 RNA 1
# RNA 2: B4 RNA 2 with C28A, A29G, U52A, U53C
# B24: target 2 MT 5'PFS UUG 3'PFS UGC (mixed)
# RNA 1: B4 RNA 1
# RNA 2: B4 RNA 2 with C28U, A29G, U53G, A54C
# B25: target 2 MT 5'PFS AUU 3'PFS CAC (mixed)
# RNA 1: B4 RNA 1
# RNA 2: B4 RNA 2 with U27A, C28U, A29U, U52C, U53A, A54C
# B26: target 2 MT 5'PFS UAG 3'PFS ACC (mixed)
# RNA 1: B4 RNA 1
# RNA 2: B4 RNA 2 with C28A, A29G, U52A, U53C, A54C
# B27: target 2 MT 5'PFS GGU 3'PFS UAC (mixed)
# RNA 1: B4 RNA 1
# RNA 2: B4 RNA 2 with U27G, C28G, A29U, U53A, A54C
# B28: target 2 MT 5'PFS GAG 3'PFS UUU (mixed)
# RNA 1: B4 RNA 1
# RNA 2: B4 RNA 2 with U27G, C28A, A29G, A54U
# B29: target 2 MT 5'PFS UGC 3'PFS AUA (mixed)
# RNA 1: B4 RNA 1
# RNA 2: B4 RNA 2 with C28G, A29C, U52A
# B30: target 2 MT 5'PFS GCG 3'PFS CGG (mixed)
# RNA 1: B4 RNA 1
# RNA 2: B4 RNA 2 with U27G, A29G, U52C, U53G, A54G
# B31: target 2 MT 5'PFS GGC 3'PFS UCA (mixed)
# RNA 1: B4 RNA 1
# RNA 2: B4 RNA 2 with U27G, C28G, A29C, U53C
# B32: target 2 MT 5'PFS GGC 3'PFS UCU (mixed)
# RNA 1: B4 RNA 1
# RNA 2: B4 RNA 2 with U27G, C28G, A29C, U53C, A54U
# B33: target 2 MT 5'PFS GUG 3'PFS UUU (mixed)
# RNA 1: B4 RNA 1
# RNA 2: B4 RNA 2 with U27G, C28U, A29G, A54U
# Target: T1, EsCas13d, nuclease-dead
# Assay: crRNA (strand 1, pre-loaded); Mg2+; 40 mM Tris-HCl pH 7.5, 150 mM NaCl, 6 mM MgCl2, 1 mM DTT, 0.1% Tween-20, 0.2 mg/ml BSA; 25 C; 10 min per concentration, then washed
# Settings: tags: His6-TwinStrep-SUMO cleaved; N-terminal SNAP kept (SNAP-Surface 488); label: 3' end held by stalled T7 RNA polymerase
row,Binder,Kd [nM]
1,B1,20.6 ± 2.7
2,B2,21.5 ± 1.1
3,B3,11.1 ± 0.6
4,B4,7.2 ± 1.1
5,B5,32 ± 6
6,B6,6.9 ± 0.4
7,B7,33 ± 7
8,B8,5.3 ± 1
9,B9,22.5 ± 3.2
10,B10,27 ± 4
11,B11,16.7 ± 1.3
12,B12,13.1 ± 1.6
13,B13,16.8 ± 1.9
14,B14,36 ± 9
15,B15,30 ± 9
16,B16,3.12 ± 0.29
17,B17,28 ± 6

row,Binder,Kd [nM]
1,B18,15.7 ± 2.5
2,B19,9.9 ± 1.4
3,B20,10.3 ± 2.3
4,B21,19.8 ± 3.1
5,B22,4.5 ± 0.5
6,B23,3 ± 0.5
7,B24,14.1 ± 2.2
8,B25,7.2 ± 0.7
9,B26,7.3 ± 2.1
10,B27,15.9 ± 1.8
11,B28,18 ± 2.2
12,B29,28 ± 9
13,B30,11.9 ± 1.2
14,B31,20.6 ± 3.1
15,B32,18.9 ± 1.7
16,B33,61 ± 13
